This is an account of results in the nanobody polyreactivity screen of Harvey et al. (2022).

The series is described as follows: yeast display, Sf9 membrane polyspecificity reagent, FACS + sequencing; frameworks hold sequencing errors. The essentials:
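In a synthetic yeast display library (Saccharomyces cerevisiae BJ5465), nanobody expression was induced with galactose for 36–48 hours. FACS gates were set low and high (top ~1%) using anti-HA fluorescence for expression and streptavidin fluorescence for binding of the Sf9 membrane reagent. Each polyreactivity label is drawn from the gate of origin.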
As for “QVQLVESGGGLVQAGGSLRLSCAPSGSTLYFYAMGWYRQAPGKERELDADITWSGGSTYYADSVKGRFTISRDNAKNTVYLQMNSLKPEDTAVYYCNADDWSTYWYGYPGYVYWGQGTQVTVSS”, the “polyreactivity (PSR sort gate)” value was “high polyreactivity”.

Turning to “QVQHVESVGGLVQAGGSLRLSCAASGSIFFWYDMGWYRQAPGKERELVASISSGGSTYYADSVKGRFTISRDNAKNTVYLQMNSLKPEDNAVYYCNAKSWSPAKSFSFFRFDYWGQGTQVTVSS”, the “polyreactivity (PSR sort gate)” value is reported as “low polyreactivity”.

Take “QVQLVESGGGLVQAGGSLRLSCAASGRTFRTYAMGWYRQAPGKERELVAAITTSGSSTYYADSVKGRFTISRDNAKNTVYLQMNSLKPEDTAVYYCAAARAAIVPGYYSWGQGTQVTVSS”: the “polyreactivity (PSR sort gate)” value is “low polyreactivity”.

As to “QVQLVESGGGLVQAGGSLRLSCAASGSIFVGNTMGWYRQAPGKERELVAAITWSGGRTYYADSVKGRFTISRDNAKNNVYLQMHSLKPEDTAVYYLKALAYYIRYYYWGKGTQVTVSS”, the “polyreactivity (PSR sort gate)” value is given as “high polyreactivity”.

On to “EVQLVESGGGLVQPGGSLRLSCAASGYIYRRYRMGWYRQAPGKGREFVAAISGGSSTNYADSVTGRFTISRDNSKNTVFLQMNSLRAEDTAVYYCAAYKIDSYPRVYWGQGTQVTVSS”, for which the “polyreactivity (PSR sort gate)” value is given as “low polyreactivity”.

As for “QVQLVESGGGLVQAGGSLRLSCAASGFTFTGNAMGWYRQAPGKERELVAAITSGGRTYYADSVKGRFTISRDNAKNTVYLQMNSLIPEDTAVYYCNTAGLKRYVTFYYWGQGTQVTVSS”, the “polyreactivity (PSR sort gate)” value was “high polyreactivity”.

With “QVQLVESGGGLVQAGGSLRLSCAASGRTFLYYAMGWESQGPGKERELVAAITGRGGSTYSADSVKGRFTISRDNAKNTVYLQMNILKPEDTAVYYCAARDNWIRRDGYWGQGTQVTVSS”, the “polyreactivity (PSR sort gate)” value is on record as “high polyreactivity”.

Regarding “QVQLVESGGGLFQAGGSLRLSCAASGITFYYYTMGWYRQAPGKERELVAAISTRGGRTYYADSVKGRFTISRDNAKNTVYLQMNSLKPEDTAVYYCATYQSGVYASKRRLDYWGQGTQVTVSS”, the “polyreactivity (PSR sort gate)” value is reported as “high polyreactivity”.

On to “QVQLEESGGGLVQAGGSLRLSCAASGGTFLAYALGWYRQAPGKERELVATITSGGSTNYADSVKGRFTISRDNAKNTVYLQMNSLKPEDTAVYYCAASGRDFIAESPYDYWGQGTQVTVSS”, for which the “polyreactivity (PSR sort gate)” value is recorded as “low polyreactivity”.

“QVQLVESGGGLVQAGGSLRLSCAASGNTFDRNAMGWYRQAPGKERELVAGISWRGGSTYYADSVKGRFTISRDNAKNTVYLQMNSLKPEDTAVYYCAAQRRYSTITGYGSWGQGTQVTVSS”: the “polyreactivity (PSR sort gate)” value was “high polyreactivity”.

On to “QVQLVESGGGLVPAGGSLRLSCAASGRTFRYYGMGWYRQAPGTERELLAAISWRGGSTNYADSVKGRFTISRDNAKNTVYLQMNSLKREDTAVYYCAVGTVYLTYRGYEYWGQGTQVTVSS”, for which the “polyreactivity (PSR sort gate)” value was “high polyreactivity”.

Turning to “QVQLVESGGGLVQAGGSLRLSCAASGRTFWYYAMGWYRQAPGKERELVAGITYGDGSTYYADSVKGRFTISRDNAKNTEYLQMNSLKPEDTAVYYCAVDLRSYWFRYGFDYWGQGTQVTVSS”, the “polyreactivity (PSR sort gate)” value is on record as “low polyreactivity”.

On to “QVQLVESGGGLVQAGGSLRLSCAASGRIFYSYAMGWYRQAPGKERELVATISRRGGSTYYADSVKGRFTISRDNAKNTVYLQMNSLKPEDTAVYYCNKGIPTRSVRSYDYWGQGTQVTVSS”, for which the “polyreactivity (PSR sort gate)” value was “high polyreactivity”.

“QVQLVESGGGLLQAGGILRLSCAASGRIFFANAMGWYRQAPGKERELVASITRRSGGTYYADSVKGRFTISRDNAKNTVYLQMNSLKPEDTAVYYCAARYTFPKALYYYWGQGTQVTVSS”: the “polyreactivity (PSR sort gate)” value is listed as “high polyreactivity”.

Regarding “QVQLVESGGGLVQAGGSLRLSCAASGRIFEHYAMGWYRQAPGKERELVAAITSSGDSTYYADSVKGRFTISRDNAKNTVYLQMNSLKPEDTAVYYCNAVAYISYLWGYYLSTPYDYWGQGTQVTVSS”, the “polyreactivity (PSR sort gate)” value is “high polyreactivity”.

In the case of “QVQLVESGGGLVQAGGSLRLSCAASGRIFRYYAMGWYRQAPGKERELVAVISSSGGSTNYADSVKGRFTISRDNAKNTVYLQMNSLKPEDTAVYYCNAYGAYGGTGDYWGQGTQVTVSS”, the “polyreactivity (PSR sort gate)” value was “high polyreactivity”.

Take “QVHLVDSGGGLVQAGGSLRLTCAASGITFYRYAMGWYRQAPWKERELVAAITGGGRTYYADSVKGRFTISRDNAKNTVYLQMNSLKPEDTAVYYCNVRTLHSVRGYDYWGQGTQVTVSS”: the “polyreactivity (PSR sort gate)” value is “high polyreactivity”.

On to “QVQLVESGGGLVQAGGSLRLSCAASGRTFTLNAMGWYRQAPGKERELVATISRRGGSTYYADSVKGRFTISRDNAKNTVYLQMNSLKPEDTAVYYCNVDRLGQRYDYWGQGTQVTVSS”, for which the “polyreactivity (PSR sort gate)” value is reported as “low polyreactivity”.

In the case of “QVQLEESGGGLVQAGGSLRLSCAASGSIFYSNAMGWYRQAPGKEREFVAAISAGGGSTYYADSVKGRFTISRDNEKNTVYLQMNSLKPEDTSVYYCAAQPYNIIYPYDYWGQGTQVTVSS”, the “polyreactivity (PSR sort gate)” value is listed as “low polyreactivity”.

Take “QVQLVESGGGLVQAGGSLRLSCASSGSIFTRYAMGWYRQAPGKERELVAAISRRGGSTYYADSVKGRFTISRDNAKNTVYIQMNSLKPEDTAVYYCYPYYIASTFDYWGQGTQVTVSS”: the “polyreactivity (PSR sort gate)” value was “high polyreactivity”.

For “QVQLVESGGGLVQAGGSLRLSCAASGSIFYYYAMGWYRQAPGKERELVAAITVSGGRTYYADSVKGRFTISRDNAKNTVYLQMNSLKPEATAVYYCAAQIYGKYDYWGQGTQVTVSS”, the “polyreactivity (PSR sort gate)” value was “low polyreactivity”.

On to “QVQLVESGGGLVQAGGSLRLSCAASGSIFDFYVMGWYRQAPGKERELVAGISEGGDSTYYADSVKGRFTISRDNAKNTVYLQMNSLKPEDTAVYYCAKASAKGSYYWGQGTQVTVSS”, for which the “polyreactivity (PSR sort gate)” value was “low polyreactivity”.

As for “QVQLVESGGGLVQAGGSLRLSCAASGSTFYGNAMVWYIQAPGKERELVAAIRWRGGRTYYADSVKGRFTNSRDNAKYTVYLKLNSLIPEDTAVYDCNALPGVSDTQYDRVGYWGQGTQVTVSS”, the “polyreactivity (PSR sort gate)” value is recorded as “high polyreactivity”.

As to “QVQLVESGGGLVQAGGSLRLSCAASGIFWANTMEWYRQAPGKERELVAAISWSGDRTYYADSVKGRFTISRDNAKNTVYLQMNSLKPEDTAVYYCAAEGTGLQRYGYFGDDGYWGQGTQVTVSS”, the “polyreactivity (PSR sort gate)” value is listed as “low polyreactivity”.

On to “QVQLVESGGGLVQAGGSLRLSCAASGSIFDSNAMGWYRQAPRQERELVAAISSGGNTNYADSVKGRFTISRDNAKNTVYLQMNSLKPDDTAVYYCARDTQLPHFYGRVSEYDYWGQGTQVTVSA”, for which the “polyreactivity (PSR sort gate)” value is listed as “low polyreactivity”.

Take “QVQLVESGGGLVQAGGSLRLSCAASGSTFYVNTMGWYRQAPGKERELVAAITATGASTYYADSVKGRFTISRDNAKNTVYLQMNSLKPEDTAVYYCNVRLRIRSGYWGQGTQVTVSS”: the “polyreactivity (PSR sort gate)” value is “high polyreactivity”.

“QVQLVESGGGLVQAGGSLRLSCAASGIIFSSYAMGWYRQAPGKERELVAAITYNGGRTYYADSVKGRFTISRDNAKNTVYLQMNSVKPEDTAVYYCAAERYPYGVTYSKLDYWGQGTQVTVSS”: the “polyreactivity (PSR sort gate)” value is reported as “high polyreactivity”.

Turning to “QVQLVESGGGLVQAGGSLRLSCDASGSIFSIYAMGWYRQAPGKERELVAAISSGGSTYYADSVKGRFTISRDNAKNTVYLQMNSLKPEDTAVYYCAADAAYYSGYDYWGQGTQVTVSS”, the “polyreactivity (PSR sort gate)” value is “low polyreactivity”.

In the case of “QVQLVESGGALVQAGGSLRLSCSASGSLFIYYAIRWYRQAPGKERELVAAISISGARTYYADSVKGRFTNSRDNAKNTVYLQMNSLKPEDTAVYYCNVSSRRLRGLDYWGQVTQVTVSS”, the “polyreactivity (PSR sort gate)” value is given as “low polyreactivity”.

In the case of “QVQLVESGGGLVQAGGSLRLSCAASGSIFGLYVMGWYRQAPGKERELVAAITGRGGSTYYADSVKGRFTISRDNAKNTVYLQMNSLKPEDTAVYYCAALRYTFAGRFDYWGQGTQVTVSS”, the “polyreactivity (PSR sort gate)” value is “high polyreactivity”.

For “QVQLVESGGGLVQAGGSLRLICADSGRIFRYNSRGWYRQAPAKERELVASISTGGSSTYYADSVKGRFTISRDNAKNTVYLQMNSLKPEYSAFYYCAATPYSYSARSYGPIYRYDYWGQGTQVTVSS”, the “polyreactivity (PSR sort gate)” value is listed as “high polyreactivity”.

Consider “QVQLVESGGGLVQAGGSLRLSCAASGFTFKYYDMGWYRQAPGKERELVAAIDTSGGNTYYADSVKGRFTISRDNAKNTVYLQMNSLKPEDTAVYYCAATVPYYHDDYWGQGTQVTVSS”, for which the “polyreactivity (PSR sort gate)” value is “low polyreactivity”.

Turning to “QVQLVESGGGLVQAGGSLRLSCAASGRIFWAYAMGWYRQAPGKERELVAGITFTGGRTYYADSVKGRFTISRDNAKNTVYLQMNSLKPEDTAVYYCAAAGLDVGRKDRDGYWGQGTQVTVSS”, the “polyreactivity (PSR sort gate)” value is “low polyreactivity”.

In the case of “QVQLVESGGGLVQAGGSLRLSCAASGSTFNWNAMGWYRQAPGKERELVAAISRSGGRTSYADSVKGRFTISRDNAKNTVYLQMNSLKPEDTAVYYCAAEKVGTRPSRDYDYWGQGTQVTVSS”, the “polyreactivity (PSR sort gate)” value is recorded as “high polyreactivity”.

On to “QVQLVESGGGLVQAGGSLRLSCAASGRTFRDNAMGWYRQAPGKERELVAAISSGDRTNYADSVKGRFTISRDNAKNTVYLQMNSLKPEETAVYYCAAVRYNSRVSTTPSEMYYWGQGTQVTVSS”, for which the “polyreactivity (PSR sort gate)” value was “low polyreactivity”.

Consider “QVQLVESGGGLVQAGGSLRLSCAASGSTFYIYGMGWYRQAPGKERELVAAISSSGGRTNYADSVKGRFTISRDNAKNTVYLQMNSLKPEDTAVYYCAARRWQGYAGWYDYWGQGTQVTVSS”, for which the “polyreactivity (PSR sort gate)” value was “high polyreactivity”.

“QVQLVESGGGLVQAGGSLRFSCAASGIIFYFYTMGWYRQAPGKERELVAAISSSGGRTFYADSVKGRFTISRDHAKNTVYLQMNSLKPEDTAVYYCAAGYPYGGDYWGQGTQVTVSS”: the “polyreactivity (PSR sort gate)” value is on record as “high polyreactivity”.

For the sequence “QVQLVESGGGLVQAGGSLRLSCAASGSIFTYNAMGWYRPAPGKERELVAAINTSGSTNYADSVKGRFTISRDNAKNTVYLQMNSLKPEDTAVYYCAAGIVVTGYDYWGQGTQVTVSS”, the “polyreactivity (PSR sort gate)” value is “low polyreactivity”.

Turning to “QVQLQESAGGLEQAGGSLRLSCAASAYISDIGTKGWYRQAPRKEREFVATIVVGSTTNYADSVKGRFTISRDNAKNTVYLQPESGRYRGVFLRGWLLPVGKFTYWGQGTQETVSS”, the “polyreactivity (PSR sort gate)” value is listed as “low polyreactivity”.

Regarding “QVQLVESGGGLVQAGGSLRLSCAASGIIFYDNALGWYRQAPGKERELVAALDSDGSTDYADSVKGRFTISRDNAKNTVYLQMNSLKPEDTAVYYCAADLVWYASGRYIYRGYDYWGQGTQVTVSS”, the “polyreactivity (PSR sort gate)” value is given as “low polyreactivity”.

Consider “QVQLVESGGGLVQAGGSLRLSCAASGRIFRGYARGWYRQAPGKEREFVAAITKNGGSTYYADSVKGRFTISRDNAKNTVYLQMNSLKPEDTAVYYCAVRAWDPYTGKSDYWGQGTQVTVSS”, for which the “polyreactivity (PSR sort gate)” value is “low polyreactivity”.
